Target: fibronectin (UniProt P02751 32-2477)
Assay: SPR

Kd: 2600 nM
B1: 22 kDa (196 amino acids) OSM (natural protein, human, UniProt P13725 26-221, looked up)
chain: AAIGSCSKEYRVLLGQLQKQTDLMQDTSRLLDPYIRIQGLDVPKLREHCRERPGAFPSEETLRGLGRRGFLQTLNATLGCVLHRLADLEQRLPKAQDLERSGLNIEDLEKLQMARPNILGLRNNIYCMAQLLDNSDTAEPTKAGRGASQPPTPTPASDAFQRKLEGCRFLHGYHRFMHSVGRVFSKWGESPNRSRR
